± gives the uncertainty stated by the source.
Test: self-splicing fitness, log relative to wild type (ln ratio); higher = more splicing; Tetrahymena group I intron in knt gene, E. coli kanamycin selection, DiMSum; sequences stand for … in CUCUCU…GGAGGGAAAAGUUAUCAGGCAUGCACCUGGUAGCUAGUCUUUAAACCAAUAGAUUGCAUCGGUUUAAAAGGCAAGACCGUCAAAUUGCGGGAAAGGGGUCAACAGCCGUUCAGUACCAAGUCUCAGGGGAAACUUUGAGAUGGCCUUGCAAAGGGUAUGGUAAUAAGCUGACGGACAUGGUCCUAACCACGCAGCCAAGUCCUAAGUCAACAGAUCUUCUGUUGAUAUGGAUGCAGUUCACAGACUAAAUGUCGGUCGGGGAAGAUGUAUUCUUCUCAUAAGAUAUAGUCGGACCUCUCCUUAAUGGGAGCUAGCGGAUGAAGUGAUGCAACACUGGAGCCGCUGGGAACUAAUUUGUAUGCGAAAGUAUAUUGAUUAGUUUUGGAGUACUCGUGGUCG
In short: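 Pooled colonies went to amplicon sequencing on an Illumina HiSeq 2500 after six replicate transformations. The plates were LB agar with 100 μg/mL carbenicillin, 50 μM IPTG and 0.2% rhamnose, with or without 25 μg/mL kanamycin, incubated overnight at 37°C or 30°C. The E. coli BL21(DE3) library had all eight P1ex-region intron nucleotides randomised, the intron placed in the knt kanamycin-resistance gene on pET-22b(+). DiMSum fitness is the error-weighted combination of replicate fold changes, kanamycin against none, normalised to wild type.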

Sequence | self-splicing fitness (ln) (30 °C) | self-splicing fitness (ln) (37 °C)
UCAUAGCAAUAUUACGUUAC | -3.58 ± 0.29 | -3.01 ± 0.33
GAGUAGCAAUAUUACGUAAC | -2.12 ± 0.1 | -2.95 ± 0.17
UGUAAGCAAUAUUACGUACU | -0.07 ± 0.081 | -0.136 ± 0.092
AAUAAGCAAUAUUACGUUAC | -3.62 ± 0.18 | -1.39 ± 0.14
CAUCAGCAAUAUUACGAUCG | -0.307 ± 0.12 | -0.125 ± 0.15
CGGUAGCAAUAUUACGGGCU | -3.22 ± 0.13 | -1.82 ± 0.14
CUCCAGCAAUAUUACGCGGA | -3.39 ± 0.2 | -3.02 ± 0.22
GCACAGCAAUAUUACGGCGC | -1.54 ± 0.1 | -0.777 ± 0.12
GACGAGCAAUAUUACGCGAU | -2.42 ± 0.26 | -2.36 ± 0.45
GGUCAGCAAUAUUACGGCAU | -0.469 ± 0.073 | 0.642 ± 0.1
AGUCAGCAAUAUUACGAAUA | -0.962 ± 0.2 | -1.22 ± 0.17
GGCCAGCAAUAUUACGUGGC | -0.533 ± 0.25 | -1.69 ± 0.35
CUAUAGCAAUAUUACGAUUG | -0.58 ± 0.097 | 0.313 ± 0.13
CGUUAGCAAUAUUACGCGGU | -3.07 ± 0.19 | -3.35 ± 0.29
GGCCAGCAAUAUUACGGUAU | -0.512 ± 0.06 | 0.47 ± 0.084
ACCAAGCAAUAUUACGUUCG | -1.88 ± 0.07 | -0.644 ± 0.093
GUAGAGCAAUAUUACGGUAU | -1.38 ± 0.083 | -0.286 ± 0.1
GACAAGCAAUAUUACGUUUC | -4.22 ± 0.19 | -2.25 ± 0.16
UUUUAGCAAUAUUACGCCGG | -1.28 ± 0.18 | -0.833 ± 0.21
GGUGAGCAAUAUUACGACUU | -0.531 ± 0.11 | 0.294 ± 0.12
ACCAAGCAAUAUUACGUCCG | -1.19 ± 0.072 | -1.19 ± 0.11
UUCGAGCAAUAUUACGCAUG | -1.2 ± 0.23 | -2.21 ± 0.3
GUAGAGCAAUAUUACGCGAA | -1.12 ± 0.058 | -0.709 ± 0.077
AAGUAGCAAUAUUACGCGGC | – | 0.207 ± 0.41
CCCUAGCAAUAUUACGAGGG | -4.35 ± 0.46 | -2.09 ± 0.23
AAACAGCAAUAUUACGCUCU | -0.653 ± 0.085 | 0.413 ± 0.086

Sequence | self-splicing fitness (ln) (30 °C) | self-splicing fitness (ln) (37 °C)
CGGAAGCAAUAUUACGAUAU | – | -2.82 ± 0.26
UAGUAGCAAUAUUACGACUU | 0.654 ± 0.13 | -0.285 ± 0.14
GUCCAGCAAUAUUACGAGGC | -2.32 ± 0.22 | -2.35 ± 0.37
CACGAGCAAUAUUACGGGUG | -3.79 ± 0.21 | -2.25 ± 0.18
CCGGAGCAAUAUUACGGAAA | -1.87 ± 0.18 | -2.41 ± 0.3
UUUGAGCAAUAUUACGACUA | -1.98 ± 0.27 | -1.32 ± 0.28
CCGCAGCAAUAUUACGCCGG | -3.15 ± 0.38 | -3 ± 0.43
UGUCAGCAAUAUUACGUACC | -0.242 ± 0.11 | -0.159 ± 0.13
ACCGAGCAAUAUUACGCCGC | -2.66 ± 0.32 | -2.1 ± 0.29
ACCUAGCAAUAUUACGGGCA | -0.58 ± 0.11 | 0.19 ± 0.13
ACGCAGCAAUAUUACGGAAC | -3.67 ± 0.2 | -1.78 ± 0.17
CCCUAGCAAUAUUACGAGUC | -3.63 ± 0.21 | -2.28 ± 0.27
GUCAAGCAAUAUUACGUCCU | -2.13 ± 0.11 | -1.04 ± 0.11
UGCUAGCAAUAUUACGGACG | 0.0612 ± 0.08 | 0.414 ± 0.099
GAGAAGCAAUAUUACGCUCA | -1.29 ± 0.16 | -1.13 ± 0.15
UGUUAGCAAUAUUACGGGCA | -0.664 ± 0.16 | 0.194 ± 0.18
UUAUAGCAAUAUUACGUAUC | -3.79 ± 0.31 | -3.04 ± 0.32
CGUUAGCAAUAUUACGAGCA | -0.917 ± 0.09 | -0.809 ± 0.089
AUACAGCAAUAUUACGUCUA | -0.606 ± 0.078 | -0.238 ± 0.079
CGCAAGCAAUAUUACGUCUG | -1.13 ± 0.06 | -0.286 ± 0.075
UCAUAGCAAUAUUACGCGCU | -3.22 ± 0.42 | –
UUCCAGCAAUAUUACGGGUG | -0.109 ± 0.058 | -0.15 ± 0.076
UAACAGCAAUAUUACGUUAU | -3.22 ± 0.16 | -2.96 ± 0.23
UAUAAGCAAUAUUACGAAGG | -2.23 ± 0.21 | -1.19 ± 0.23
CGUUAGCAAUAUUACGAUUG | -0.332 ± 0.073 | -0.316 ± 0.084
UACUAGCAAUAUUACGCAAU | -3.82 ± 0.23 | -1.63 ± 0.16

Sequence | self-splicing fitness (ln) (30 °C) | self-splicing fitness (ln) (37 °C)
GGGCAGCAAUAUUACGACAG | -2.72 ± 0.39 | -0.948 ± 0.32
UGACAGCAAUAUUACGUCUG | -0.69 ± 0.072 | -0.119 ± 0.093
GAGAAGCAAUAUUACGACGA | -0.554 ± 0.066 | -0.104 ± 0.09
CGCGAGCAAUAUUACGUAGG | -2.88 ± 0.14 | -0.445 ± 0.12
CCUAAGCAAUAUUACGCACA | -4.21 ± 0.46 | -1.2 ± 0.35
CCCGAGCAAUAUUACGGACG | -3.62 ± 0.29 | -0.706 ± 0.18
GAUUAGCAAUAUUACGGGGA | -2.86 ± 0.19 | -2.71 ± 0.2
CUCAAGCAAUAUUACGAUUC | -4.11 ± 0.27 | -2.26 ± 0.24
GUAGAGCAAUAUUACGAUAC | -1.42 ± 0.13 | -0.561 ± 0.18
AAAGAGCAAUAUUACGGUAA | -1.74 ± 0.3 | -1.67 ± 0.26
AUUAAGCAAUAUUACGUUCU | -0.566 ± 0.064 | 0.034 ± 0.086
ACAUAGCAAUAUUACGGAAG | -3.57 ± 0.15 | -3.04 ± 0.22
GAUGAGCAAUAUUACGGCUA | -1.01 ± 0.17 | -1.41 ± 0.17
UGGCAGCAAUAUUACGUUAA | -1.16 ± 0.084 | -0.28 ± 0.084
ACAGAGCAAUAUUACGUCUG | -2.35 ± 0.18 | -1.03 ± 0.21
GUACAGCAAUAUUACGACUA | -1.16 ± 0.13 | -0.637 ± 0.12
GAUUAGCAAUAUUACGACGC | 0.277 ± 0.14 | 0.361 ± 0.14
AAUCAGCAAUAUUACGAUGU | 0.218 ± 0.053 | 0.543 ± 0.08
GGGUAGCAAUAUUACGUUGU | -2.46 ± 0.19 | -1.14 ± 0.17
CUGCAGCAAUAUUACGAAGA | -1.62 ± 0.23 | -2.17 ± 0.27
CCUGAGCAAUAUUACGUAUG | -2.38 ± 0.11 | -1.56 ± 0.11
AGGUAGCAAUAUUACGAAAG | -3.732 ± 0.036 | -2.49 ± 0.045
AUCCAGCAAUAUUACGGCUA | -0.15 ± 0.092 | -0.19 ± 0.08
GUUGAGCAAUAUUACGUUAU | -3.37 ± 0.18 | -0.445 ± 0.17
UCAUAGCAAUAUUACGUUUC | -3.79 ± 0.43 | -1.72 ± 0.23

— the supplement of paper PMC7877785
